Laboratory results taken from patent US20190309072A1 (published 2019).

Target: T1, human ITGa3 protein (human, UniProt P26006 33-991)
T1 chain: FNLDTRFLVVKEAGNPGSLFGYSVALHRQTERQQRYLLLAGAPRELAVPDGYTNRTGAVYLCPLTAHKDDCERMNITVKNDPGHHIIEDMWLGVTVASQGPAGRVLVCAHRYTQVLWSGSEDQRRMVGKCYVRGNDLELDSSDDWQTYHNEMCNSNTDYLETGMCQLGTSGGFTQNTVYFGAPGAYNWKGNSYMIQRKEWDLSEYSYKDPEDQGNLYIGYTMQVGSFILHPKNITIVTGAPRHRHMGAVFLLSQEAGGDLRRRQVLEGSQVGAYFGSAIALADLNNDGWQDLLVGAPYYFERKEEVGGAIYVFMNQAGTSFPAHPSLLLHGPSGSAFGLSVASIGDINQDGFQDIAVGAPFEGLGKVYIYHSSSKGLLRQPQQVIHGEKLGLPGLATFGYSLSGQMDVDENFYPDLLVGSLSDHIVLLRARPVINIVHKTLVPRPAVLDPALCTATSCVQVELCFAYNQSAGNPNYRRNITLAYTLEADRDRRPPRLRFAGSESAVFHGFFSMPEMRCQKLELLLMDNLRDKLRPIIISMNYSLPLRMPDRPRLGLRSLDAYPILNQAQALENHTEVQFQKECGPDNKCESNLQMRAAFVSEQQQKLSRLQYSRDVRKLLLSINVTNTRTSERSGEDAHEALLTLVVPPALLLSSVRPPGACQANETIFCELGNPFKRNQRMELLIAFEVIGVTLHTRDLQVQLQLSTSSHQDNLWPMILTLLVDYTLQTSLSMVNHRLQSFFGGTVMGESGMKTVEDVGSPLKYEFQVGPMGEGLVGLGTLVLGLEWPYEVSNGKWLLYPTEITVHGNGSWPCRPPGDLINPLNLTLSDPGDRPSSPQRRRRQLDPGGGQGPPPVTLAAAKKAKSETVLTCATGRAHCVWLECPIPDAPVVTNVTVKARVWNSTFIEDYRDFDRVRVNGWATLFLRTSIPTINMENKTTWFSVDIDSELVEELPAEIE
Experiment: ELISA; apparent Kd

B1: ITGa3-VM2 (antibody, V domains shown)
VH: EVQLQESGAELVKPGTSVRLSCKASGYTFTEYIIHWVKQRSGQGLEWIGWFYPESGSVKYNETFKGRATLTADKSSSTVYMELSRLTSEDSAVYFCARHEERDYYGYYAMDYWGQGTSVTVSS
VL: DIVMTQTPTTLAASPGEKIIITCSASSSISSNYLHWYQQKPGFSPKLLIYRTSNLASGVPARFSGSGSGTSYSLTIGTMEAEDVATYYCQQGSSIPRFTSGSGTKLEIK
  Kd: 0.23 nM

B2: Lc1/Hc1S (VH of SEQ ID NO: 4 and VL of SEQ ID NO: 12) (antibody, V domains shown)
VH: QVQLVQSGAEVKKPGSSVKVSCKASGYTFTEYIIHWVRQAPGQGLEWIGWFYPESGSVKYSETFKGRATLTADKSTSTAYMELSSLRSEDTAVYYCARHEERDYYGYYAMDYWGQGTTVTVSS
VL: DIQMTQSPSSLSASVGDRVIITCSASSSISSNYLHWYQQKPGKVPKLLIYRTSNLASGVPSRFSGSGSGTDYTLTISSLQPEDVATYYCQQGSSIPRFTSGGGTKVEIK
  Kd: 0.18 nM

B3: Lc2/Hc2S (antibody, V domains shown)
VH: QVQLVQSGAEVKKPGSSVKVSCKASGYTFTEYIIHWVRQAPGQGLEWIGWFYPESGSVKYSETFKGRATITADKSTSTAYMELSSLRSEDTAVYYCARHEERDYYGYYAMDYWGQGTTVTVSS
VL: DIQMTQSPSSLSASVGDRVIITCSASSSISSNYLHWYQQKPGKVPKLLIYRTSNLASGVPSRFSGSGSGTDYTLTISSLQPEDVATYYCQQGSSIPRFTSGGGTKVEIK
  Kd: 0.24 nM

B4: Lc1/Hc1G (antibody, V domains shown)
VH: QVQLVQSGAEVKKPGSSVKVSCKASGYTFTEYIIHWVRQAPGQGLEWIGWFYPESGSVKYNEGFKGRATLTADKSTSTAYMELSSLRSEDTAVYYCARHEERDYYGYYAMDYWGQGTTVTVSS
VL: DIQMTQSPSSLSASVGDRVTITCSASSSISSNYLHWYQQKPGKVPKLLIYRTSNLASGVPSRFSGSGSGTDYTLTISSLQPEDVATYYCQQGSSIPRFTSGGGTKVEIK
  Kd: 0.23 nM

B5: Lc1/Hc2A (antibody, V domains shown)
VH: QVQLVQSGAEVKKPGSSVKVSCKASGYTFTEYIIHWVRQAPGQGLEWIGWFYPESGSVKYNEAFKGRATITADKSTSTAYMELSSLRSEDTAVYYCARHEERDYYGYYAMDYWGQGTTVTVSS
VL: DIQMTQSPSSLSASVGDRVTITCSASSSISSNYLHWYQQKPGKVPKLLIYRTSNLASGVPSRFSGSGSGTDYTLTISSLQPEDVATYYCQQGSSIPRFTSGGGTKVEIK
  Kd: 0.27 nM

B6: Lc2/Hc1A (antibody, V domains shown)
VH: QVQLVQSGAEVKKPGSSVKVSCKASGYTFTEYIIHWVRQAPGQGLEWIGWFYPESGSVKYNEAFKGRATLTADKSTSTAYMELSSLRSEDTAVYYCARHEERDYYGYYAMDYWGQGTTVTVSS
VL: DIQMTQSPSSLSASVGDRVIITCSASSSISSNYLHWYQQKPGKVPKLLIYRTSNLASGVPSRFSGSGSGTDYTLTISSLQPEDVATYYCQQGSSIPRFTSGGGTKVEIK
  Kd: 0.23 nM

B7: Lc2/Hc2A (antibody, V domains shown)
VH: QVQLVQSGAEVKKPGSSVKVSCKASGYTFTEYIIHWVRQAPGQGLEWIGWFYPESGSVKYNEAFKGRATITADKSTSTAYMELSSLRSEDTAVYYCARHEERDYYGYYAMDYWGQGTTVTVSS
VL: DIQMTQSPSSLSASVGDRVIITCSASSSISSNYLHWYQQKPGKVPKLLIYRTSNLASGVPSRFSGSGSGTDYTLTISSLQPEDVATYYCQQGSSIPRFTSGGGTKVEIK
  Kd: 0.24 nM

B8: Lc2/Hc2 (antibody, V domains shown)
VH: QVQLVQSGAEVKKPGSSVKVSCKASGYTFTEYIIHWVRQAPGQGLEWIGWFYPESGSVKYNETFKGRATITADKSTSTAYMELSSLRSEDTAVYYCARHEERDYYGYYAMDYWGQGTTVTVSS
VL: DIQMTQSPSSLSASVGDRVIITCSASSSISSNYLHWYQQKPGKVPKLLIYRTSNLASGVPSRFSGSGSGTDYTLTISSLQPEDVATYYCQQGSSIPRFTSGGGTKVEIK
  Kd: 0.1 nM

B9: Lc1/Hc1 (antibody, V domains shown)
VH: QVQLVQSGAEVKKPGSSVKVSCKASGYTFTEYIIHWVRQAPGQGLEWIGWFYPESGSVKYNETFKGRATLTADKSTSTAYMELSSLRSEDTAVYYCARHEERDYYGYYAMDYWGQGTTVTVSS
VL: DIQMTQSPSSLSASVGDRVTITCSASSSISSNYLHWYQQKPGKVPKLLIYRTSNLASGVPSRFSGSGSGTDYTLTISSLQPEDVATYYCQQGSSIPRFTSGGGTKVEIK
  Kd: 0.18 nM

B10: Lc1/Hc1S (antibody, V domains shown)
VH: QVQLVQSGAEVKKPGSSVKVSCKASGYTFTEYIIHWVRQAPGQGLEWIGWFYPESGSVKYSETFKGRATLTADKSTSTAYMELSSLRSEDTAVYYCARHEERDYYGYYAMDYWGQGTTVTVSS
VL: DIQMTQSPSSLSASVGDRVTITCSASSSISSNYLHWYQQKPGKVPKLLIYRTSNLASGVPSRFSGSGSGTDYTLTISSLQPEDVATYYCQQGSSIPRFTSGGGTKVEIK
  Kd: 0.18 nM

B11: Lc1/Hc2S (antibody, V domains shown)
VH: QVQLVQSGAEVKKPGSSVKVSCKASGYTFTEYIIHWVRQAPGQGLEWIGWFYPESGSVKYSETFKGRATITADKSTSTAYMELSSLRSEDTAVYYCARHEERDYYGYYAMDYWGQGTTVTVSS
VL: DIQMTQSPSSLSASVGDRVTITCSASSSISSNYLHWYQQKPGKVPKLLIYRTSNLASGVPSRFSGSGSGTDYTLTISSLQPEDVATYYCQQGSSIPRFTSGGGTKVEIK
  Kd: 0.32 nM

B12: Lc2/Hc1 (antibody, V domains shown)
VH: QVQLVQSGAEVKKPGSSVKVSCKASGYTFTEYIIHWVRQAPGQGLEWIGWFYPESGSVKYNETFKGRATLTADKSTSTAYMELSSLRSEDTAVYYCARHEERDYYGYYAMDYWGQGTTVTVSS
VL: DIQMTQSPSSLSASVGDRVIITCSASSSISSNYLHWYQQKPGKVPKLLIYRTSNLASGVPSRFSGSGSGTDYTLTISSLQPEDVATYYCQQGSSIPRFTSGGGTKVEIK
  Kd: 0.18 nM

B13: Lc1/Hc2 (antibody, V domains shown)
VH: QVQLVQSGAEVKKPGSSVKVSCKASGYTFTEYIIHWVRQAPGQGLEWIGWFYPESGSVKYNETFKGRATITADKSTSTAYMELSSLRSEDTAVYYCARHEERDYYGYYAMDYWGQGTTVTVSS
VL: DIQMTQSPSSLSASVGDRVTITCSASSSISSNYLHWYQQKPGKVPKLLIYRTSNLASGVPSRFSGSGSGTDYTLTISSLQPEDVATYYCQQGSSIPRFTSGGGTKVEIK
  Kd: 0.07 nM

B14: Lc2/Hc2G (antibody, V domains shown)
VH: QVQLVQSGAEVKKPGSSVKVSCKASGYTFTEYIIHWVRQAPGQGLEWIGWFYPESGSVKYNEGFKGRATITADKSTSTAYMELSSLRSEDTAVYYCARHEERDYYGYYAMDYWGQGTTVTVSS
VL: DIQMTQSPSSLSASVGDRVIITCSASSSISSNYLHWYQQKPGKVPKLLIYRTSNLASGVPSRFSGSGSGTDYTLTISSLQPEDVATYYCQQGSSIPRFTSGGGTKVEIK
  Kd: 0.18 nM

B15: Lc1/Hc1A (antibody, V domains shown)
VH: QVQLVQSGAEVKKPGSSVKVSCKASGYTFTEYIIHWVRQAPGQGLEWIGWFYPESGSVKYNEAFKGRATLTADKSTSTAYMELSSLRSEDTAVYYCARHEERDYYGYYAMDYWGQGTTVTVSS
VL: DIQMTQSPSSLSASVGDRVTITCSASSSISSNYLHWYQQKPGKVPKLLIYRTSNLASGVPSRFSGSGSGTDYTLTISSLQPEDVATYYCQQGSSIPRFTSGGGTKVEIK
  Kd: 0.32 nM
